Results published in patent publication US20100093623A1, “COMPOSITIONS AND METHODS FOR […]-LIKE RECEPTOR ACTIVITY AND USES THEREOF” (Burnham Institute for Medical Research, priority 2008, published 2010).

Target: T1, NLRP1 (Homo sapiens, UniProt Q9C000)
T1 sequence (Q9C000 1-1473): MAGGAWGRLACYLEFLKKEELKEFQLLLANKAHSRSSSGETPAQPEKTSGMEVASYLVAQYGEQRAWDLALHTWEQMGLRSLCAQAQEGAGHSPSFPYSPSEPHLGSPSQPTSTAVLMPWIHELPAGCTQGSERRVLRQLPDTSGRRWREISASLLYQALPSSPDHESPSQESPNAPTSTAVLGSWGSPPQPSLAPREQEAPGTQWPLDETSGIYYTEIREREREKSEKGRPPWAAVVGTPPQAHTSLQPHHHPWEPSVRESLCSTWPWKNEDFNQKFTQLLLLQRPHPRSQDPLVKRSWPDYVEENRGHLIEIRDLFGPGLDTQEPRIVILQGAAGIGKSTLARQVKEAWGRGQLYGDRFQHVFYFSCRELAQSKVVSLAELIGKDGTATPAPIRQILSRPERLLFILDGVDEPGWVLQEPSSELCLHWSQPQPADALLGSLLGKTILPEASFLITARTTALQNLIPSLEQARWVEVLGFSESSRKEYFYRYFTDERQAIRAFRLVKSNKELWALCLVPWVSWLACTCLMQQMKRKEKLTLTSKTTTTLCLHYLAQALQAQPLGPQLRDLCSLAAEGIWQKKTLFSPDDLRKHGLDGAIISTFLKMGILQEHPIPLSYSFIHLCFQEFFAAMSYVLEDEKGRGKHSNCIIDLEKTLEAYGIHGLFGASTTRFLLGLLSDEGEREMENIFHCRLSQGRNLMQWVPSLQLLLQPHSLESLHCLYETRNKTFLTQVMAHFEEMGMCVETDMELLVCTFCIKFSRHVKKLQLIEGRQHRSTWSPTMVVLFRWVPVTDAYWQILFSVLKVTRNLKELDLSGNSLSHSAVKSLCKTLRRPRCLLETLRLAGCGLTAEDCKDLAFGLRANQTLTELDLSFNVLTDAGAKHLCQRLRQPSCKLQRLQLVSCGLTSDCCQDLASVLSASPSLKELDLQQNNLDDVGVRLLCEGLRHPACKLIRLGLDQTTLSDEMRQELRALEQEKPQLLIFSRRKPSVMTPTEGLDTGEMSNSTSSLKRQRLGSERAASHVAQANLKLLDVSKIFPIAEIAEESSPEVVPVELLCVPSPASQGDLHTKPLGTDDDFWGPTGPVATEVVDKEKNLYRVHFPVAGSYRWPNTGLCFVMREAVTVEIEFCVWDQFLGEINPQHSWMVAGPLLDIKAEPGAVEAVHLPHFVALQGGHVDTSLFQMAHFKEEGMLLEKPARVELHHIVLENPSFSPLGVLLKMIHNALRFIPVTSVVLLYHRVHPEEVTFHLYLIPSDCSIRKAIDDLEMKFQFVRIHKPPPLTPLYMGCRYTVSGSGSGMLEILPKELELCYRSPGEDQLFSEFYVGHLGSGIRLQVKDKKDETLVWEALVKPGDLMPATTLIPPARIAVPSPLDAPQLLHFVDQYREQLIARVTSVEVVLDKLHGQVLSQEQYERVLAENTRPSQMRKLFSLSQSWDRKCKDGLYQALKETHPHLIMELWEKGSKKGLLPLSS
Test: FITC-ATP binding to NLRP1 by fluorescence polarization assay (FPA)
Details: protein 1 μM at excess; NLRP1 0.125 μM; FITC-ATP 10 nM; MDP-LD 1 μM

B1: Bid: control protein (Bcl-2 family) (protein, UniProt P55957 1-195, looked up)
BH3-interacting domain death …: MDCEVNNGSSLRDECITNLLVFGFLQSCSDNSFRRELDALGHELPVLAPQWEGYDELQTDGNRSSHSRLGRIEADSESQEDIIRNIARHLAQVGDSMDRSIPPGLVNGLALQLRNTSRSEEDRNRDLATALEQLLQAYPRDMEKEKTMLVLALLLAKKVASHTPSLLRDVFHTTVNFINQNLRTYVRSLARNGMD
- reduction of FITC-ATP binding to NLRP1: negligible effects
